From US11492376B2, “Toxoplasma gondii GRA8-derived recombinant peptides and composition for preventing or treating cancer comprising the same” (Industry—University Cooperation Foundation Hanyang …, priority 2019, dated 2022)

Assays:
[1] = Serum cytokine response in tumor-bearing mice
Description: Immunoblotting was performed with anti-PKCα, anti-ATP5A1, anti-SIRT3 or anti-actin. […] (B) The schematic diagram of a xenograft model treated with rVector (upper). HCT116-expressing ATP5A1 WT and mutant cells were subcutaneously injected into the flank of nude mice. […] Each group included 10 mice. […] (C) Humoral immune responses in BALB/C mice. The mice were immunized via each route (intravenous injection or intraperitoneal injection) every third day, and subjected to blood collection on day 40. […] The values are expressed as mean±standard deviation for absorbance (OD) at 450 nm. Each group included five mice. (D) Cytokine response for rATRAM-GRA8-M/AS in tumor-bearing mice. As described in the method section, HCT116 cells were subcutaneously injected into the flank of a BALB/c mouse. A serum cytokine level was measured on day 30 after administration. Each group included 10 mice.
Since immunogenicity is closely related with safety and efficacy, it is one of the critical factors for development of therapeutic proteins. Therefore, by monitoring the production of antibodies against rATRAM-GRA8-M/AS in immunized mice, the immunogenicity of rATRAM-GRA8-M/AS was investigated. After three consecutive injections of rATRAM-GRA8-M/AS, a level of IgG antibody was analyzed using enzyme-linked immunosorbent assay (ELISA).

HCT116 cells = experiment: Mitochondrial DNA quantification by real-time PCR; type: cell-based, human; conditions: 1 day, via SIRT3 and PKCα
Description: FIGS. 4A, 4B, 4C, 4D and 4E show HCT116 cell death by rATRAM-GRA8-M/AS-induced mitochondrial activation [(A and B) HCT116 cells were incubated with WT rGRA8 or rATRAM-GRA8-M/AS and its mutants for indicated times, and then cell viability was measured with an MTT assay. […] The cells were stimulated with rATRAM-GRA8-M/AS for 1 day and subjected to enzymatic activity of OXPHOS V, and (C) MitoTracker fluorescence signals were assessed by flow cytometry. (D) A bar graph indicates a mitochondrial mass (MFI), and (E) the mtDNA content of BMDM was measured by quantitative real-time PCR. The mtDNA content was normalized by nuclear DNA. Significant differences were determined by comparison with control treatment (** P<0.01; *** P<0.001). Data represents five independent experiments with similar results].
To quantify the copy number of mitochondrial DNA (mtDNA), by the method described in Autophagy. 2014; 10:785-802: The AMPK-PPARGC1A pathway is required for antimicrobial host defense through activation of autophagy, an mtDNA to nuclear DNA (nDNA) ratio was measured. Pyruvate kinase (Pklr) was used as a marker for nDNA and NADH dehydrogenase subunit 1 (mt-Nd1) was used as a marker for mtDNA. A real-time PCR reaction was performed according to the manufacturer's instructions (QuantiFast SYBR green PCR master mix; Qiagen, 204052), and temperature cycling was performed in QuantStudio™ 3 (ABI). […]

BMDM = experiment: MTT assay of cell viability, bone marrow-derived macrophages (BMDM); type: cell-based, mouse; conditions: 20 μg/ml
Description: FIGS. 2A, 2B, 2C, 2D and 2E show the design and expression of an ATRAM-conjugated multifunctional GRA8 peptide (rATRAM-G8-M/AS)-based protein [(A) Subcellular fractionation of 293T cells was performed by expression of GST-GRA8 WT or incubation of WT rGRA8 with (1 μg/ml) BMDM and treatment with several Tat-GRA8 peptides for 6 hours (10 μM). Mitochondrial and cytosolic fractions were fractionated and analyzed for expression of GST by IB. The purity of the fractions was confirmed by blotting for VDAC (mitochondrial protein) and actin (cytosolic protein). (B) A mammalian GST-GRA8 construct was transfected into 293T cells for 12 hours with V5-ATP5A1 or Flag-SIRT3, and treated with several Tat-GRA8 peptides (10 μM) for 6 hours. The 293T cells were used for GST pulldown, followed by IB with αV5 or αFlag. WCL was used for IB with αGST, αV5, αFlag or αActin. […] (D) 6×His-rATRAM-GRA8-M/AS purified with bacteria and its mutants were analyzed by Coomassie blue staining (left) or αHis immunoblotting (IB; right). (E) BMDM was incubated with rATRAM-GRA8-M/AS and its mutant (20 μg/ml) for indicated times, and cell viability was then measured by an MMT assay. […]
As described in Non-Patent Document 1, the cell viability for a non-treated group was measured by an MTT assay. […] Using a UV/VIS spectrophotometer, each well of a plate was measured at 540 nm to measure relative cell viability.

[2] = BALB/c mice, versus negative control

B1: (GLAGLAGLLGLEGLLGLPLGLLEGLWLGLELEGN)2-GG-ATATTTTTTR-GG-YRFTVQTTQN (protein)
chain: GLAGLAGLLGLEGLLGLPLGLLEGLWLGLELEGNGLAGLAGLLGLEGLLGLPLGLLEGLWLGLELEGNGGATATTTTTTRGGYRFTVQTTQN
modifications: His tag; rATRAM-G8-M/AS
serum IL-1β level [1, 2]: almost similar to that of the negative control | serum IL-6 level [1, 2]: almost similar to that of the negative control | serum TNF-α level [1, 2]: almost similar to that of the negative control | production of inflammatory cytokines ([1]; tumor-bearing mice, serum, day 30): negligible | mitochondrial DNA content (HCT116 cells): enhanced | cytotoxicity in macrophages compared with vector control (BMDM): No significant cytotoxic differences
